# Laboratory results published in US20210115421 (published 2021).
# Experiments:
# [1] = molecular target: T1, LbCas12a-K595Y (Lachnospiraceae bacterium ND2006, K595Y); assay: cleavage_in_vitro; PAM ACCC; NEB 2.1, 37C; wt TTTV benchmark 9.2
# [2] = molecular target: T2, LbCas12a-E159K (Lachnospiraceae bacterium ND2006, E159K); assay: cleavage_in_vitro; PAM CCCC; NEB 2.1, 37C
# [3] = molecular target: T3, LbCas12a-K595W (Lachnospiraceae bacterium ND2006, K595W); assay: cleavage_in_vitro; PAM CCCC; NEB 2.1, 37C
# [4] = molecular target: T4, LbCas12a-D156Q (Lachnospiraceae bacterium ND2006, D156Q); assay: cleavage_in_vitro; PAM CCTA; NEB 2.1, 37C
# [5] = molecular target: T5, LbCas12a-D535N (Lachnospiraceae bacterium ND2006, D535N); assay: cleavage_in_vitro; PAM TTGC; NEB 2.1, 37C
# [6] = molecular target: T6, LbCas12a-K538W (Lachnospiraceae bacterium ND2006, K538W); assay: cleavage_in_vitro; PAM TATA; NEB 2.1, 37C
# [7] = molecular target: T6, LbCas12a-K538W; assay: cleavage_in_vitro; PAM TATC; NEB 2.1, 37C
# [8] = molecular target: T2, LbCas12a-E159K; assay: cleavage_in_vitro; PAM TTCT; NEB 2.1, 37C
# [9] = molecular target: T7, LbCas12a-K121R (Lachnospiraceae bacterium ND2006, K121R); assay: cleavage_in_vitro; PAM TTCT; NEB 2.1, 37C
# [10] = molecular target: T8, LbCas12a-T152R (Lachnospiraceae bacterium ND2006, T152R); assay: cleavage_in_vitro; PAM GCCC; NEB 2.1, 37C
# [11] = molecular target: T4, LbCas12a-D156Q; assay: cleavage_in_vitro; PAM GTTC; NEB 2.1, 37C
# [12] = molecular target: T1, LbCas12a-K595Y; assay: cleavage_in_vitro; PAM TTCG; NEB 2.1, 37C
# [13] = molecular target: T1, LbCas12a-K595Y; assay: cleavage_in_vitro; PAM GCGC; NEB 2.1, 37C
# [14] = molecular target: T8, LbCas12a-T152R; assay: cleavage_in_vitro; PAM CCTG; NEB 2.1, 37C
# [15] = molecular target: T7, LbCas12a-K121R; assay: cleavage_in_vitro; PAM CCTG; NEB 2.1, 37C
# [16] = molecular target: LbCas12a-D122H (Lachnospiraceae bacterium ND2006, D122H); assay: cleavage_in_vitro; PAM TCCC; NEB 2.1, 37C
# [17] = molecular target: T9, LbCas12a-G532H (Lachnospiraceae bacterium ND2006, G532H); assay: cleavage_in_vitro; PAM TTCA; NEB 2.1, 37C
# [18] = molecular target: T5, LbCas12a-D535N; assay: cleavage_in_vitro; PAM TTTC; NEB 2.1, 37C
# [19] = molecular target: T6, LbCas12a-K538W; assay: cleavage_in_vitro; PAM TTTC; NEB 2.1, 37C
# [20] = molecular target: T3, LbCas12a-K595W; assay: cleavage_in_vitro; PAM ACGG; NEB 2.1, 37C
# [21] = molecular target: T8, LbCas12a-T152R; assay: cleavage_in_vitro; PAM CTTC; NEB 2.1, 37C
# [22] = molecular target: T9, LbCas12a-G532H; assay: cleavage_in_vitro; PAM CTTC; NEB 2.1, 37C
binder,measurement,setting,value
PAMDA protospacer 1 crRNA ; protospacer 1 with ACCC PAM (ssRNA ; dsDNA) RNA: AAUUUCUACUAAGUGUAGAUGGAAUCCCUUCUGCAGCACCUGG DNA 1: ACCCGGAATCCCTTCTGCAGCACCTGG DNA 2: CCAGGTGCTGCAGAAGGGATTCCGGGT,activity,[1],18.7 fold depletion
PAMDA protospacer 1 crRNA ; protospacer 1 with CCCC PAM (ssRNA ; dsDNA) RNA: AAUUUCUACUAAGUGUAGAUGGAAUCCCUUCUGCAGCACCUGG DNA 1: CCCCGGAATCCCTTCTGCAGCACCTGG DNA 2: CCAGGTGCTGCAGAAGGGATTCCGGGG,activity,[2],12.3 fold depletion
same,activity,[3],11.9 fold depletion
PAMDA protospacer 1 crRNA ; protospacer 1 with CCTA PAM (ssRNA ; dsDNA) RNA: AAUUUCUACUAAGUGUAGAUGGAAUCCCUUCUGCAGCACCUGG DNA 1: CCTAGGAATCCCTTCTGCAGCACCTGG DNA 2: CCAGGTGCTGCAGAAGGGATTCCTAGG,activity,[4],13.4 fold depletion
PAMDA protospacer 1 crRNA ; protospacer 1 with TTGC PAM (ssRNA ; dsDNA) RNA: AAUUUCUACUAAGUGUAGAUGGAAUCCCUUCUGCAGCACCUGG DNA 1: TTGCGGAATCCCTTCTGCAGCACCTGG DNA 2: CCAGGTGCTGCAGAAGGGATTCCGCAA,activity,[5],10.9 fold depletion
PAMDA protospacer 1 crRNA ; protospacer 1 with TATA PAM (ssRNA ; dsDNA) RNA: AAUUUCUACUAAGUGUAGAUGGAAUCCCUUCUGCAGCACCUGG DNA 1: TATAGGAATCCCTTCTGCAGCACCTGG DNA 2: CCAGGTGCTGCAGAAGGGATTCCTATA,activity,[6],10.4 fold depletion
PAMDA protospacer 1 crRNA ; protospacer 1 with TATC PAM (ssRNA ; dsDNA) RNA: AAUUUCUACUAAGUGUAGAUGGAAUCCCUUCUGCAGCACCUGG DNA 1: TATCGGAATCCCTTCTGCAGCACCTGG DNA 2: CCAGGTGCTGCAGAAGGGATTCCGATA,activity,[7],9.66 fold depletion
PAMDA protospacer 1 crRNA ; protospacer 1 with TTCT PAM (ssRNA ; dsDNA) RNA: AAUUUCUACUAAGUGUAGAUGGAAUCCCUUCUGCAGCACCUGG DNA 1: TTCTGGAATCCCTTCTGCAGCACCTGG DNA 2: CCAGGTGCTGCAGAAGGGATTCCAGAA,activity,[8],12.7 fold depletion
same,activity,[9],14.4 fold depletion
PAMDA protospacer 1 crRNA ; protospacer 1 with GCCC PAM (ssRNA ; dsDNA) RNA: AAUUUCUACUAAGUGUAGAUGGAAUCCCUUCUGCAGCACCUGG DNA 1: GCCCGGAATCCCTTCTGCAGCACCTGG DNA 2: CCAGGTGCTGCAGAAGGGATTCCGGGC,activity,[10],13 fold depletion
PAMDA protospacer 1 crRNA ; protospacer 1 with GTTC PAM (ssRNA ; dsDNA) RNA: AAUUUCUACUAAGUGUAGAUGGAAUCCCUUCUGCAGCACCUGG DNA 1: GTTCGGAATCCCTTCTGCAGCACCTGG DNA 2: CCAGGTGCTGCAGAAGGGATTCCGAAC,activity,[11],15.6 fold depletion
PAMDA protospacer 1 crRNA ; protospacer 1 with TTCG PAM (ssRNA ; dsDNA) RNA: AAUUUCUACUAAGUGUAGAUGGAAUCCCUUCUGCAGCACCUGG DNA 1: TTCGGGAATCCCTTCTGCAGCACCTGG DNA 2: CCAGGTGCTGCAGAAGGGATTCCCGAA,activity,[12],17.8 fold depletion
PAMDA protospacer 1 crRNA ; protospacer 1 with GCGC PAM (ssRNA ; dsDNA) RNA: AAUUUCUACUAAGUGUAGAUGGAAUCCCUUCUGCAGCACCUGG DNA 1: GCGCGGAATCCCTTCTGCAGCACCTGG DNA 2: CCAGGTGCTGCAGAAGGGATTCCGCGC,activity,[13],17.5 fold depletion
PAMDA protospacer 1 crRNA ; protospacer 1 with CCTG PAM (ssRNA ; dsDNA) RNA: AAUUUCUACUAAGUGUAGAUGGAAUCCCUUCUGCAGCACCUGG DNA 1: CCTGGGAATCCCTTCTGCAGCACCTGG DNA 2: CCAGGTGCTGCAGAAGGGATTCCCAGG,activity,[14],14.8 fold depletion
same,activity,[15],13 fold depletion
PAMDA protospacer 1 crRNA ; protospacer 1 with TCCC PAM (ssRNA ; dsDNA) RNA: AAUUUCUACUAAGUGUAGAUGGAAUCCCUUCUGCAGCACCUGG DNA 1: TCCCGGAATCCCTTCTGCAGCACCTGG DNA 2: CCAGGTGCTGCAGAAGGGATTCCGGGA,activity,[16],18.8 fold depletion
PAMDA protospacer 1 crRNA ; protospacer 1 with TTCA PAM (ssRNA ; dsDNA) RNA: AAUUUCUACUAAGUGUAGAUGGAAUCCCUUCUGCAGCACCUGG DNA 1: TTCAGGAATCCCTTCTGCAGCACCTGG DNA 2: CCAGGTGCTGCAGAAGGGATTCCTGAA,activity,[17],16.2 fold depletion
PAMDA protospacer 1 crRNA ; protospacer 1 with TTTC PAM (ssRNA ; dsDNA) RNA: AAUUUCUACUAAGUGUAGAUGGAAUCCCUUCUGCAGCACCUGG DNA 1: TTTCGGAATCCCTTCTGCAGCACCTGG DNA 2: CCAGGTGCTGCAGAAGGGATTCCGAAA,activity,[18],10.5 fold depletion
same,activity,[19],11.7 fold depletion
PAMDA protospacer 1 crRNA ; protospacer 1 with ACGG PAM (ssRNA ; dsDNA) RNA: AAUUUCUACUAAGUGUAGAUGGAAUCCCUUCUGCAGCACCUGG DNA 1: ACGGGGAATCCCTTCTGCAGCACCTGG DNA 2: CCAGGTGCTGCAGAAGGGATTCCCCGT,activity,[20],11.5 fold depletion
PAMDA protospacer 1 crRNA ; protospacer 1 with CTTC PAM (ssRNA ; dsDNA) RNA: AAUUUCUACUAAGUGUAGAUGGAAUCCCUUCUGCAGCACCUGG DNA 1: CTTCGGAATCCCTTCTGCAGCACCTGG DNA 2: CCAGGTGCTGCAGAAGGGATTCCGAAG,activity,[21],16.1 fold depletion
same,activity,[22],15.1 fold depletion
